Measured values reported in US20250051444A1 (SUZHOU ZELGEN BIOPHARMACEUTICALS, published 2025).

T1: human LRRC15 (leucine-rich repeat containing protein 15) (human, UniProt Q8TF66 22-581)
T1 construct: whole, on cells; also called huLRRC15
T1 sequence (looked up): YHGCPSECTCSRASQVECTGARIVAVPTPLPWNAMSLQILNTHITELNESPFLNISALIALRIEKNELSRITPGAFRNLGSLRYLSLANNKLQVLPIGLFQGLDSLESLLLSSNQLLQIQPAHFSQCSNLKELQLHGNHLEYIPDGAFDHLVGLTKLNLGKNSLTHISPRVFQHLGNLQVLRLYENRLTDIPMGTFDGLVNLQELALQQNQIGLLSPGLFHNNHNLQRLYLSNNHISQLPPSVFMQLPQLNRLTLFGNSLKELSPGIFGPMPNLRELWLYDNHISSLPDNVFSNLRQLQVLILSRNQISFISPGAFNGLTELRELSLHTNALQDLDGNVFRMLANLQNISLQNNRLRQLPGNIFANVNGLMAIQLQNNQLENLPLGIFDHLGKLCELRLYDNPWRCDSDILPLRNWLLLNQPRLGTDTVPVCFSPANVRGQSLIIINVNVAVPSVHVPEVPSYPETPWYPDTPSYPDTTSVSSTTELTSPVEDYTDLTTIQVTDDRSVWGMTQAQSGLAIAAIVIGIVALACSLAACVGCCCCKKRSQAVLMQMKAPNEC

B1: 315-L06C08 (bispecific antibody)
chain: not shown
heavy: QVQLVESGGGLVKPGGSLRLSCAASGFTFSDYYMSWIRQAPGKGLEWVSDISVSSSYTNYADSVKGRFTISRDNAKNSLYLQMNSLRAEDTAVYYCARLGGYRSFFSTDDGDSLDYWGQGTLVTVSSASTKGPSVFPLAPSSKSTSGGTAALGCLVKDYFPEPVTVSWNSGALTSGVHTFPAVLQSSGLYSLSSVVTVPSSSLGTQTYICNVNHKPSNTKVDKRVEPKSCDKTHTCPPCPAPEFEGGPSVFLFPPKPKDTLMISRTPEVTCVVVDVSHEDPEVKFNWYVDGVEVHNAKTKPREEQYNSTYRVVSVLTVLHQDWLNGKEYKCKVSNKALPASIEKTISKAKGQPREPQVCTLPPSRDELTKNQVSLTCLVEGFYPSDIAVEWESNGQPENNYKTTPPVLDSDGSFFLYSDLTVDKSRWQQGNVFSCSVMHEALHNHYTQESLSLSPGK
light: not shown
notes: heterodimeric IgG1 Fc; also called bispecific antibody of structure c (scFv-scFv-Fc x Fab-Fc)
B2: L15-07 (antibody, V domains shown)
VH: QVQLVQSGAEVKKPGSSVKVSCKASGGTFSTYAISWVRQAPGQGLEWMGGITPMFGTPNYAQKFQGRVTITADESTSTAYMELSSLRSEDTAVYYCARGDWYDYHFDYWGQGTLVTVSS
VL: QSALTQPASVSGSPGQSITISCTGTSSDVGGYNYVSWYQQHPGKAPKLMIYEVSNRPSGVSNRFSGSKSGNTASLTISGLQAEDEADYYCQSYANRDNFVVFGGGTKLTVL
notes: From phage library screening
B3: 153-L06C (bispecific antibody)
chain 1: not shown
chain 2: EPKSCDKTHTCPPCPAPEFEGGPSVFLFPPKPKDTLMISRTPEVTCVVVDVSHEDPEVKFNWYVDGVEVHNAKTKPREEQYNSTYRVVSVLTVLHQDWLNGKEYKCKVSNKALPASIEKTISKAKGQPREPQVCTLPPSRDELTKNQVSLTCLVEGFYPSDIAVEWESNGQPENNYKTTPPVLDSDGSFFLYSDLTVDKSRWQQGNVFSCSVMHEALHNHYTQESLSLSPGK
notes: Targets LRRC15 and CD3; heterodimeric IgG1 Fc; also called bispecific antibody of structure b (scFv-scFv-Fc x Fc)
B4: L15-03 (antibody, V domains shown)
VH: QVQLVQSGAEVKKPGSSVKVSCKASGGTFSSYTISWVRQAPGQGLEWMGGIIPMFGTANYAQKFQGRVTITADESTSTAYMELSSLRSEDTAVYYCARGVALLATDFDYWGQGTLVTVSS
VL: QSALTQPASVSGSPGQSITISCTGTSSDVGGYNYVSWYQQHPGKAPKLMIYEVSNRPSGVSNRFSGSKSGNTASLTISGLQAEDEADYYCQSWTHDNSVVFGGGTKLTVL
notes: From phage library screening; also called anti-LRRC15 antibody L15-03
B5: L15-06 (antibody, V domains shown)
VH: EVQLLESGGGLVQPGGSLRLSCAASGFTFSSYYMSWVRQAPGKGLEWVADISVSGSYTNYADSVKGRFTISRDNSKNTLYLQMNSLRAEDTAVYYCARIGSYRSFFSTDDGDSLDYWGQGTLVTVSS
VL: not shown
notes: From phage library screening; tested as a 'monoclonal antibody molecule'; also called L15-L06
B6: L15-08 (antibody, V domains shown)
VH: QVQLVESGGGLVKPGGSLRLSCAASGFTFSDYYMSWIRQAPGKGLEWVSDISVSSSYTNYADSVKGRFTISRDNAKNSLYLQMNSLRAEDTAVYYCARLGGYRSFFSTDDGDSLDYWGQGTLVTVSS
VL: not shown
notes: From phage library screening

Target: T1, human LRRC15 (leucine-rich repeat …)
Assay: FACS on CHO cells expressing human LRRC15
Procedure: Furthermore, the binding ability of the LRRC15 antibodies of the present invention to CHO cells expressing LRRC15 was tested. Therein, CHO cells expressing LRRC15 were prepared by the following method: the full-length sequence gene fragments of human, mouse and monkey LRRC15 were obtained by whole gene synthesis, and then these fragments were inserted into the backbone of the stable expression vector to obtain the expression plasmid vectors. These three plasmids were transfected into CHO cells, and monoclonal cell lines were screened under the pressure of puromycin, which are the flow cytometry cell lines used in this example.
CHO cells expressing LRRC15 were washed with FACS buffer (0.5% BSA in PBS) and resuspended at 2E6 cells/ml with the gradient diluted LRRC15 antibodies. The resuspension was incubated on ice for 30 minutes, then washed twice with FACS buffer and incubated with the second antibody on ice for 30 minutes. After washing the resuspended cells with FACS buffer again, the cells were detected by flow cytometry. Based on the measured mean fluorescence intensity, the half maximal binding concentration (EC50) of each antibody was determined.

Binder | binding result
B1 | binds
B2 | binds
B3 | binds
B4 | binds
B5 | binds
B6 | binds
